These results are taken from patent publication US20220281980A1 (Bristol-Myers Squibb, published 2022).

Test [1] addresses T1, human MICA*009 expressed on CHO cells (human, UniProt Q29983 24-382).
T1 construct: also called MICA allele 009
T1 chain: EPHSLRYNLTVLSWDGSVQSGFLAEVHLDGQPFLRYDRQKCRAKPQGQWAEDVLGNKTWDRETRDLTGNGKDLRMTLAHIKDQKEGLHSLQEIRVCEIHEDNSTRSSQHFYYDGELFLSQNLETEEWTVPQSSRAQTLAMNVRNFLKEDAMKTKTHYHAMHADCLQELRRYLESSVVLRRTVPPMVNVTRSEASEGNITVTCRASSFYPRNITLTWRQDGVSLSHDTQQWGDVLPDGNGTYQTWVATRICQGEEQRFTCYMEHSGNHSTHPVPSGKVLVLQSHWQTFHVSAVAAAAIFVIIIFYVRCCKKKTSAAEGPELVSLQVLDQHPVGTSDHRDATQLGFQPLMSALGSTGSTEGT
The test can be described thus: flow cytometry, transfected CHO cells.

Test [2] concerns the target T2, cynomolgus monkey MICA/B clone #4 expressed on CHO cells (cynomolgus monkey).
T2 construct: whole, on cells; also called cyno#4; CHO-cyno MICA clone #4
The test can be described thus: flow cytometry, transfected CHO cells. (In flow cytometry, cells or beads pass a laser one at a time.)

Test [3] addresses T3, recombinant soluble human MICA*002 antigen (human, UniProt Q29983 24-307).
T3 construct: also called huIMICA-his allele *002
T3 chain: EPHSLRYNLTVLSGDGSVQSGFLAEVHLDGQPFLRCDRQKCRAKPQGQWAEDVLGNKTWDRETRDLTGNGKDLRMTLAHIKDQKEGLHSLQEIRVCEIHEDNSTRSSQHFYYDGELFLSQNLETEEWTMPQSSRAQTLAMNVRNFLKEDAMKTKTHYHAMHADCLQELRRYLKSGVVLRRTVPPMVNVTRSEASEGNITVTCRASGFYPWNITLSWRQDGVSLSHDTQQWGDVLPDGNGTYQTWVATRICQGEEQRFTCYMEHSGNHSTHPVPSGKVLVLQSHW
The test can be described thus: SPR (Biacore 3000), antibody captured on Protein G chip, huMICA-his analyte. The procedure: (§1) Kinetics and affinity of anti-MICA/B antibodies MICA.2, 19G6, 16A5, and 71C2 towards human MICA alleles (huIMICA-his allele *002, *004, *008, and *009) were also determined on a BIACORE 3000® instrument using the following conditions: [0571] Running Buffer: HES-EP running buffer [0572] Chip: CM5 Protein G Chip Fc1: Blank. Fc2-4: ˜200Rus [0573] Ab: 5 ug/mL, 10 uL @ 10 uL/min [0574] Ag binding: 5 min association, 7 min dissociation @ 25 uL/min, [0575] Regeneration: Glycine 1.7, 10 uL @ 100 uL/min followed by 60s wash by HES-EP

In test [4] the target is T4, recombinant soluble human MICA*004 antigen (human, UniProt Q29983 24-307).
T4 construct: also called huIMICA-his allele *004
T4 chain: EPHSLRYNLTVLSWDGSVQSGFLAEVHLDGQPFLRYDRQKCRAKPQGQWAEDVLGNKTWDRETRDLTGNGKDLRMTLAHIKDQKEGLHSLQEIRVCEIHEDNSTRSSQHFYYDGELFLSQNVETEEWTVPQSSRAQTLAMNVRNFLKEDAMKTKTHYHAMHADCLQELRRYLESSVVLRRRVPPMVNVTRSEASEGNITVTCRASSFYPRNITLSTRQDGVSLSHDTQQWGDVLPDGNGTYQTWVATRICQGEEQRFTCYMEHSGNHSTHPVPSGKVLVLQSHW
The description is as above. The procedure: as §1

Test [5] has as its target T5, recombinant soluble human MICA*008 antigen (human, UniProt Q29983 24-307).
T5 construct: also called huIMICA-his allele *008; recombinant soluble MICA (allele 8)
T5 chain: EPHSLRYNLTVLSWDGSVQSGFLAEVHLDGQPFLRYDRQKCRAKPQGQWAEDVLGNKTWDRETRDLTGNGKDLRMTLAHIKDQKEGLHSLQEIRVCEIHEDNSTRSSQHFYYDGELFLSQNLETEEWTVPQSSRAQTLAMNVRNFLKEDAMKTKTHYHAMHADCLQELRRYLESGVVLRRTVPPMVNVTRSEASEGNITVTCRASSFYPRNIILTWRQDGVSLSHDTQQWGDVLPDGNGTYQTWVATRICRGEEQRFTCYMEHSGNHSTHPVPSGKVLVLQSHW
The test is described as above. The procedure: as §1

In test [6] the target is T6, recombinant soluble human MICA*009 antigen (human, UniProt Q29983 24-307).
T6 construct: also called huIMICA-his allele *009
T6 chain: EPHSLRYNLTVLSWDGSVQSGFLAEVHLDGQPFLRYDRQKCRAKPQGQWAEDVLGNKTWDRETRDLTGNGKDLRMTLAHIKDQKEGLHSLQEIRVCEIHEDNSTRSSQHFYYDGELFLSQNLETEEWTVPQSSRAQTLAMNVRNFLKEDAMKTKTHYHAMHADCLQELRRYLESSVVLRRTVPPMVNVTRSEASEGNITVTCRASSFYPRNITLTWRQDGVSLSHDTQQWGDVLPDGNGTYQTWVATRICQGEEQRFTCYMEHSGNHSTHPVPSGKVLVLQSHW
The description is as above. The method, then: as §1

Test [7] concerns the target T5, recombinant soluble human MICA*008 …. The test can be described thus: BLI (Octet) sandwich binning on soluble MICA allele 8, row antibody captured; competitor (second antibody): 24G11. The method, then:
(§2) The binning experiments were performed on an Octet HTX instrument at 25° C. in HEPES buffered saline (10 mM HEPES pH 7.4, 150 mM NaCl, 0.05% v/v surfactant P20, and 1 mg/mL BSA). Anti-MICA/B antibodies and NKG2D-mFc were captured on anti-Fc tips and remaining capture sites were blocked with an excess of negative control IgG. Recombinant soluble MICA (allele 8) was bound and subsequent binding (“sandwiching”) of anti-MICA/B antibodies was tested.
(In general: In BLI a coated tip is dipped into the sample, and binding shifts an interference pattern.)

Test [8] shares this target. The test can be described thus: BLI (Octet) sandwich binning on soluble MICA allele 8, row antibody captured; competitor (second antibody): MICA.40. The procedure:
as §2

B1: 71C2 (antibody, V domains shown)
VH: EVQLVESGGGLVQPGRSLRLSCAASGFTFNNYAMHWVRQAPGKGLEWVSGITWNSDSIGYADSVKGRFTISRDNAKNSLYLQMNSLRAEDTALYYCAKDSVLLWFGGMDVWGQGTTVTVSS
VL: not shown
notes: Hybridoma antibody
For orientation: EC50 means the concentration giving half of the maximal effect. As a reminder, the Kd is the constant that tells how readily two partners part at equilibrium. As for B1, the EC50 was 10.2 nM in test [1] and 23.4 nM in test [2]. Also, the Kd in test [3] was found to be 3010 nM; in test [4], 262 nM; in test [5], 39.9 nM; in test [6] it was 1400 nM.

B2: MICA.36 (antibody, V domains shown)
VH: QVQLVESGGGVVQPGRSLRLSCAASGFTFSNYAMHWVRQAPGEGLEWVALIWYDGSNKFYGDSVKGRFTISRDNSKNTLYLQMNSLSAEDTAVYYCAREGSGHYWGQGTLVTVSS
VL: AIQLTQSPSSLSASVGDRVTITCRASQGISSALAWYQQKPGKVPKSLIYDASSLESGVPSRFSGSGSGTDFTLTISSLQPEDFATYYCQQFNSYPITFGQGTRLEIK
notes: it says that the name implies no specific constant region; Radioiodinated in the Scatchard assay; also called MICA.36 antibody
With B2, the “simultaneous binding (0 = no, 1 = yes)” value was found to be 0 in test [7] and 1 in test [8].

B3: 19G6 (antibody, V domains shown)
VH: QVQLVESGGGVVQPGRSLRLSCAASGFTFSNYAMHWVRQAPGEGLEWVALIWYDGSNKFYGDSVKGRFTISRDNSKNTLYLQMNSLSAEDTAVYYCAREGSGHYWGQGTLVTVSS
VL: AIQLTQSPSSLSASVGDRVTITCRASQGISSALAWYQQKPGKVPKSLIYDASSLESGVPSRFSGSGSGTDFTLTISSLQPEDFATYYCQQFNSYPITFGQGTRLEIK
notes: Hybridoma antibody from human IgG transgenic mice, parent of MICA.36; also called 19G6 mAb; hybridoma 19G6
On to B3, for which the EC50 in test [1] amounted to 8.21 nM; in test [2] it was 1.08 nM. In addition, the Kd in test [3] was found to be 219 nM; in test [4], 9.78 nM; in test [5] it was 5.23 nM; in test [6], 13.7 nM.

B4: MICA.2 (antibody, human IgG1, kappa, V domains shown)
VH: EVQLVESGGGLVQPGGSLRLSCAASGFTFSTYSMNWVRQAPGKGLEWVSYISYRSRTIYYADSVKGRFTISRDNARNSLYLQMNSLRDEDTAVYYCARWGYGSGGFDYWGQGTLVTVSS
VL: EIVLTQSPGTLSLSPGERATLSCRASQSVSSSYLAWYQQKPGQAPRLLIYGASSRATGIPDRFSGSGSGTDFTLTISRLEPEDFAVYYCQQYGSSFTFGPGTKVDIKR
notes: 3F5 variable regions on human IgG1f and human kappa constant regions, made in CHO-S cells; also called 3F5; recombinant antibody of 3F5
Consider B4, for which the concentration for a half-maximal effect (EC50) in test [1] came to 1.56 nM; in test [2], 1.97 nM. For the same molecule, the Kd came out at 27.5 nM in test [3], 54.6 nM in test [4], 40.5 nM in test [5] and 61.5 nM in test [6]. In addition, the results for the “simultaneous binding (0 = no, 1 = yes)” value in test [7] and in test [8] were 1 and 0, respectively.

B5: 24G11 (antibody, V domains shown)
VH: EVQLVQSGAEVKKPGESLKISCKGSGYSFTNYWIGWVRQMPGKGLEWLGIIHPGDSYTRYSPSFQGQVTISADKSISTAYLQWSSLKASDTAIYYCAREGIAATPFDYWGQGTLVTVSS
VL: EIVLTQSPATLSLSPGERATLSCRASQSVSSYLAWFQQKPGQAPRLLIYDASNRATGIPARFSGSGSGTDFTLTISSLEPEDFAVYYCQQRSNWPPTFGQGTKVEIK
notes: also called MICA.54; 24G11 (MICA.54)
In the case of B5, the values for the EC50 in test [1] and in test [2] were 497 nM and 394 nM, respectively. The entries for the “simultaneous binding (0 = no, 1 = yes)” value in test [7] and in test [8] were 0 and 1, respectively.
